Assays:
[1] = target: somatostatin receptors on AR42J cells (rat); assay: apparent IC50; competition with ^111In-DTPA-octreotide on AR42J cells, 3 h at RT
[2] = target: gastrin-releasing peptide receptor on PC-3 cells (UniProt P30550); assay: competition with ^125I-BBN on PC-3 cells, repeat experiment (250 to 2 nM competitor)
gastrin-releasing peptide receptor on PC-3 cells, sequence (P30550 whole entry): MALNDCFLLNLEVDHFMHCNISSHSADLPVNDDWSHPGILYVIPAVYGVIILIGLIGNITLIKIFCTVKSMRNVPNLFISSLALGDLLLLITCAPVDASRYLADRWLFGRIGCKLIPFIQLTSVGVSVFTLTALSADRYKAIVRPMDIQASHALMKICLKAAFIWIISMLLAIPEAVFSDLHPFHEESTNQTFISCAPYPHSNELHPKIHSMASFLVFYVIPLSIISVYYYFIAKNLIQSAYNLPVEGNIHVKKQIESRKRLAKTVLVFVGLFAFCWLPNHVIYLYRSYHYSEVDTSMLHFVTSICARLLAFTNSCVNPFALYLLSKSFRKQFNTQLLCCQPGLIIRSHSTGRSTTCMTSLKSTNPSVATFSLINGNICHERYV

somatostatin receptors on AR42J cells (rat), sequence (P30680 whole entry): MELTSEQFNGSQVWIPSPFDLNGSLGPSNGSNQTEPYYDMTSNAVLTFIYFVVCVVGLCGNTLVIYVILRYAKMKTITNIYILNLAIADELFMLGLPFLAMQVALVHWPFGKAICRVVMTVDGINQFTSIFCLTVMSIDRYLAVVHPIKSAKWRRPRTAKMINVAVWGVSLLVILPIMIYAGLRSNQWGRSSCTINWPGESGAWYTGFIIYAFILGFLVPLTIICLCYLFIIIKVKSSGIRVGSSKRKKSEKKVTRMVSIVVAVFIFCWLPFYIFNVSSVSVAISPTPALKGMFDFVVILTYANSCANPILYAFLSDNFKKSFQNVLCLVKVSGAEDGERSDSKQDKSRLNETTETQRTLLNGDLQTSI

Substance	IC50 [1] [nM]	IC50 [2] [nM]
^69Ga-IMP466 (gallium complex of IMP 466) (peptide)	13	–
^115In-DTPA-octreotide (peptide)	6.3	–
^19F-IMP466 (Al^19F complex of IMP 466, NOTA-D-Phe-Cys-Phe-D-Trp-Lys-Thr-Cys-Throl) (peptide)	3.6	–
commercially available BBN peptide	–	24.4
